Biological target: α-synuclein 1-140 (UniProt P37840)
Assay: membrane pelleting, Western blot of dimers/trimers
Conditions: reference: WT (unphosphorylated) α-synuclein; sites S129

With “α-synuclein 1-140 (from UniProt P37840) pS129 α-synuclein” the “other: oligomer/monomer ratio” value was “stronger; reference 0.22 ± 0.07”.
